Assay results as given in patent US20150361183A1 (IMPERIAL INNOVATIONS, published 2015).

What was measured:
[1] = biological target: the molecule itself; assay: MALS / size exclusion chromatography
Text: FIG. 3(a) Generation of a CFHR5 protein lacking critical amino acids within the dimerisation motif. Monomeric CFHR5 (CFHR5^{dimer mutant}) was generated by mutating the three stabilizing amino acids (Tyr34Ser, Ser36 Tyr, Tyr39Glu) within the dimerisation motif to the corresponding amino acids within CFH. FIG. 3(b) Analysis of recombinant CFHR5 and CFHR5^{dimer mutant} using SDS PAGE gel electrophoresis. Both the wild type and dimer mutants were purified to single homogenous species as visualized by denaturing electrophoresis. FIG. 3(c) Analysis of recombinant CFHR5 and CFHR5^{dimer mutant} using size exclusion chromatography. Size exclusion chromatography was performed on a Superdex200 10/30 column (GE Healthcare) equilibrated in 50 mM Tris.HCl, pH 7.5, 150 mM NaCl at 0.4 ml/min. The column was followed in-line by an Optilab-Rex refractive index monitor (Wyatt Technologies). The CFHR5 dimer elutes early from the column (blue trace) whilst the monomeric CFHR5^{dimer mutant} protein elutes at a larger column volume (red trace). FIG. 3(d) Interaction of CFHR5 and CFHR5^{dimer mutant} with renal-bound mouse C3 in vivo.
The inventors next explored the functional consequences of dimerisation. They predicted that dimerisation would enhance ligand interaction through avidity. To test this they generated monomeric and dimeric CFHR5 proteins. […]

C5 = biological target: T1, C5 (UniProt P01031 19-673; P01031 678-1676, limits assumed); assay: SPR, CFHR112 immobilised (750 RU), C5 flowed
T1 construct: also called complement C5
T1 sequence (P01031 19-673 limits assumed, chain 1 of 2): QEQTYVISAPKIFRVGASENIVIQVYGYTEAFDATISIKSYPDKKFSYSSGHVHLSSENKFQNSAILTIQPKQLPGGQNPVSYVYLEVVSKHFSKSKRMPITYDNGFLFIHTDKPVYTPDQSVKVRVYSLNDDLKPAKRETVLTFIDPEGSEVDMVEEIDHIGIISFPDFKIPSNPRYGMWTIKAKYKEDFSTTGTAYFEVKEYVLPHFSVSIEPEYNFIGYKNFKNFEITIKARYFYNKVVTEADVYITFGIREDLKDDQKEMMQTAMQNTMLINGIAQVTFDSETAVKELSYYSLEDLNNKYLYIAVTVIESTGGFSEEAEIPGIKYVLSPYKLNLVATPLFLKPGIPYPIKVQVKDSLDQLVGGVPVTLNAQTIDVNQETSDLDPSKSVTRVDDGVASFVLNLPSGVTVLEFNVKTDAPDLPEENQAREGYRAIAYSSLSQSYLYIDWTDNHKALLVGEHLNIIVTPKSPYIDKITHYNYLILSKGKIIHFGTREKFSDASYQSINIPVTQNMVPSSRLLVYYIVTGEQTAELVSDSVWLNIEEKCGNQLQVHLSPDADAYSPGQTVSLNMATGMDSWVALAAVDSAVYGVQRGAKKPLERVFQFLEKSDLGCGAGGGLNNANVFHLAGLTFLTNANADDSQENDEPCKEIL
T1 sequence (P01031 678-1676 limits assumed, chain 2 of 2): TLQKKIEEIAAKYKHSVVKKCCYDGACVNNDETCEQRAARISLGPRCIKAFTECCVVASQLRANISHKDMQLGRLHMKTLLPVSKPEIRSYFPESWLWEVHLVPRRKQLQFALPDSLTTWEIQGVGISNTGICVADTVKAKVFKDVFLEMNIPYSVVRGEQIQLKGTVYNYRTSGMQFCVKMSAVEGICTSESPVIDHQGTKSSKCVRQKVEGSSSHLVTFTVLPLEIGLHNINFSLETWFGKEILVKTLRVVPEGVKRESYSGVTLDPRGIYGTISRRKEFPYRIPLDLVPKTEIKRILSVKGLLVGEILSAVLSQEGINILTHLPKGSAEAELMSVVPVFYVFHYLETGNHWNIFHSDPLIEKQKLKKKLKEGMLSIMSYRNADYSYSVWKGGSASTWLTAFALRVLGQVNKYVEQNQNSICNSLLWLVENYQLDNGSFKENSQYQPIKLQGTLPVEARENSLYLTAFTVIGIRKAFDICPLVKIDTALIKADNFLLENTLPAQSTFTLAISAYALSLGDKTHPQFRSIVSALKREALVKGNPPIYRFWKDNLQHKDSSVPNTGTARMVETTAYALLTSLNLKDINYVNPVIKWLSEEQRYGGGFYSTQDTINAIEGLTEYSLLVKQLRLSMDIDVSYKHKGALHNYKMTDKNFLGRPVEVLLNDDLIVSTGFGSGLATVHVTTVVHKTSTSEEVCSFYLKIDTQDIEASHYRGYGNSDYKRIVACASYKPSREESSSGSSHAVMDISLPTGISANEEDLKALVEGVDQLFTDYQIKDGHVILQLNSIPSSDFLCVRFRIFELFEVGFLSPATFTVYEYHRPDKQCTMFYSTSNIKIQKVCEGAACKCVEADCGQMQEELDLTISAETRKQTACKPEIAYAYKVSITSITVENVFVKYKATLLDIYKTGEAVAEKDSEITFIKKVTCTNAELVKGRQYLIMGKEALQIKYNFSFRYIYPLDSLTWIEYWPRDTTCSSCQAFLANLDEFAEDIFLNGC

X-ray crystal structure = biological target: the molecule itself; assay: X-ray crystal structure
Description: Crystals were grown using the sitting drop vapour diffusion method from 0.2 μL, protein+0.2 μL mother liquor drops at […] using protein stocks at A280=3.3 and 7.8 for CFHR112 and CFHR234 respectively. CFHR112 crystals grew from a mother liquor containing 36% PEG 2000 MME, 0.1M MES pH 6.5. CFHR234 crystals grew in 30% PEG 8000, 0.2M ammonium sulphate. Crystals were plunge cooled in liquid nitrogen following cryoprotection in 20% and 15% ethylene glycol for CFHR112 and CFHR234, respectively. Data were collected at both the ESRF and DIAMOND using the rotation method with oscillation ranges of 0.150 or 0.20 at 120 K. CFHR112 data were collected at beamline ID29 (ESRF, Grenoble) with λ=1.7105 Å. CFHR234 data were collected at beamline I04-1 (DIAMOND, UK) with λ=0.9173 Å. Data were integrated and scaled using XIA2 19 with the −3dii option to enforce usage of XDS 20 for integration and SCALA for scaling 21.

B1: CFHR5 dimer mutant (Tyr34Ser, Ser36Tyr, Tyr39Glu) (other)
chain: EGTLCDFPKIHHGFLYDEEDYNPFSQVPTGEVFSYYCEENFVSPSKSFWTRITCTEEGWSPTPKCLRMCSFPFVKNGHSESSGLIHLEGDTVQIICNTGYSLQNNEKNISCVERGWSTPPICSFTKGECHVPILEANVDAQPKKESYKVGDVLKFSCRKNLIRVGSDSVQCYQFGWSPNFPTCKGQVRSCGPPPQLSNGEVKEIRKEEYGHNEVVEYDCNPNFIINGPKKIQCVDGEWTTLPTCVEQVKTCGYIPELEYGYVQPSVPPYQHGVSVEVNCRNEYAMIGNNMITCINGIWTELPMCVATHQLKRCKIAGVNIKTLLKLSGKEFNHNSRIRYRCSDIFRYRHSVCINGKWNPEVDCTEKREQFCPPPPQIPNAQNMTTTVNYQDGEKVAVLCKENYLLPEAKEIVCKDGRWQSLPRCVESTAYCGPPPSINNGDTTSFPLSVYPPGSTVTYRCQSFYKLQGSVTVTCRNKQWSEPPRCLDPCVVSEENMNKNNIQLKWRNDGKLYAKTGDAVEFQCKFPHKAMISSPPFRAICQEGKFEYPICE
notes: also called monomeric CFHR5
binding result [1]: no binding

B2: CFHR112 (recombinant first two SCR domains of CFHR1) (other)
chain: EATFCDFPKINHGILYDEEKYKPFSQVPTGEVFYYSCEYNFVSPSKSFWTRITCTEEGWSPTPKCLRLCFFPFVENGHSESSGQTHLEGDTVQIICNTGYRLQNNENNISCVERGWSTPPKCRST
notes: Head-to-tail homodimer in crystal and in solution; also called CFHR1,2; recombinant CFHR1 domains 1 and 2
binding result (C5): no binding
binding result (X-ray crystal structure): binds
